Measured values as given in article PMC6773726, “The ubiquitin-like modifier FAT10 interferes with SUMO activation” (Nature Communications, 2019).
Numbering of substitutions follows the chain as printed. Each block holds one binder with its values, some of them ahead of it.

What was measured:
[1] = molecular target: T1, AOS1/UBA2, heterodimeric SUMO E1 activating enzyme, recombinant (human, UniProt Q9UBE0 1-346; Q9UBT2 1-640); experiment: co-IP; recombinant proteins: 25 nM AOS1/UBA2 with 0.7 uM of each FAT10 variant in in vitro buffer without ATP; FAT10 precipitated with the antibody 4F1 on protein A sepharose, 3 h at 8 °C; blots for the E1 subunits; conditions: both partners purified
T1 construct: expressed from pET11d-UBA2; The N-terminal end of the His tag follows from the printed offset of +23 aa; also called SAE1/SAE2; not shown: 6His, N-terminal, kept
T1 sequence (looked up) 1: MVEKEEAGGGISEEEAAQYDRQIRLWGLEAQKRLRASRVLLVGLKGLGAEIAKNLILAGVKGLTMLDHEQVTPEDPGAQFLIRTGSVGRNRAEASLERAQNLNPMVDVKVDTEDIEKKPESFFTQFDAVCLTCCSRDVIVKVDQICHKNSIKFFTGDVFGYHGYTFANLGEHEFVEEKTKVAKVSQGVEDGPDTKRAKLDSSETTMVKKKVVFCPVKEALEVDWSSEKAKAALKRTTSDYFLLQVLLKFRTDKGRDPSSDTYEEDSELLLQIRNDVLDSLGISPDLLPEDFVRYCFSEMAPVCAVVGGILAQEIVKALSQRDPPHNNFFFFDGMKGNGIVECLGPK
T1 sequence (looked up) 2: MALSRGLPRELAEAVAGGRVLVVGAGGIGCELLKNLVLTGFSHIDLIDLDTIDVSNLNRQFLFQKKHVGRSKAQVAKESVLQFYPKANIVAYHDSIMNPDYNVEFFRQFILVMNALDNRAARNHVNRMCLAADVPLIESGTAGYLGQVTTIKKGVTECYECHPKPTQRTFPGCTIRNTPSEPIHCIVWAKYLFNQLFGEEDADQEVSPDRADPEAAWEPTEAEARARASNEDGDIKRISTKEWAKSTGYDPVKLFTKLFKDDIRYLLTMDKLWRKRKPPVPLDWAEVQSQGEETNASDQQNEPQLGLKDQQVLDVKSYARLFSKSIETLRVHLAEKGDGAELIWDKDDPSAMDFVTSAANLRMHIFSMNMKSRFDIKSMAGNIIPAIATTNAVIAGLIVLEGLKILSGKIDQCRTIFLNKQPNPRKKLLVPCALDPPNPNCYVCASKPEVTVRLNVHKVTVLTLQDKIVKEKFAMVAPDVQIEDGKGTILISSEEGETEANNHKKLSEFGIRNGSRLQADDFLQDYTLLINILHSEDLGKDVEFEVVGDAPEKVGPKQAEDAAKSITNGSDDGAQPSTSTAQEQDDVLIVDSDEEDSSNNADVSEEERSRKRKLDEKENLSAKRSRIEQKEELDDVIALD

[2] = molecular target: T1, AOS1/UBA2, heterodimeric SUMO E1 …; experiment: BLI; Octet (Forte Bio); sensors loaded with 0.1 mg/ml AOS1/UBA2; GST-FAT10 at 0.5, 0.25, 0.1 and 0.05 mg/ml measured versus GST; buffer TNT (50 mM Tris HCl pH 7.6, 100 mM NaCl, 0.1% Triton X-100); association 600 s, dissociation 600 s; conditions: both partners purified

binding result [1]: binds
B1: FAT10, recombinant, untagged (natural protein, human, UniProt O15205 2-165, looked up)
chain: APNASCLCVHVRSEEWDLMTFDANPYDSVKKIKEHVRSKTKVPVQDQVLLLGSKILKPRRSLSSYGIDKEKTIHLTLKVVKPSDEELPLFLVESGDEAKRHLLQVRRSSSVAQVKAMIETKTGIIPETQIVTCNGKRLEDGKMMADYGIRKGNLLFLACYCIGG
notes: FAT10 (ubiquitin D, UBD), human; also called wild-type FAT10; source: E. coli BL21(DE3) (pSUMO-FAT10), purified (HisTrap, tag removal with ULP-1, cation exchange)

binding result [1]: binds
B2: FAT10-AV, recombinant, untagged (natural protein, human, UniProt O15205 2-165, looked up)
chain: B1 chain with G163A, G164V
notes: FAT10 (ubiquitin D, UBD), human, C-terminal diglycine motif changed from GG to AV; also called FAT10 diglycine mutant FAT10-AV; source: E. coli BL21(DE3) (pSUMO-FAT10-AV), purified (HisTrap, tag removal with ULP-1, cation exchange)

Kd [2]: 1800 nM
B3: GST-FAT10 (natural protein, human, UniProt O15205 1-165, looked up)
chain: MAPNASCLCVHVRSEEWDLMTFDANPYDSVKKIKEHVRSKTKVPVQDQVLLLGSKILKPRRSLSSYGIDKEKTIHLTLKVVKPSDEELPLFLVESGDEAKRHLLQVRRSSSVAQVKAMIETKTGIIPETQIVTCNGKRLEDGKMMADYGIRKGNLLFLACYCIGG
notes: FAT10 (ubiquitin D, UBD), human; also called FAT10 (in the sentence that gives the Kd); source: E. coli BL21(DE3) (pGEX4T-3-FAT10), purified (glutathione agarose, PD-10 desalting)
